Measured values taken from patent EP4696711A1 (Jiangsu Hengrui Pharmaceuticals Co., Ltd., dated 2024).

Target: T1, Cynomolgus MUC1 his (Cat. # MU1-C52H5, Acro) (cynomolgus)
T1 construct: His-tagged, bought; also called Cyno MUC1-His
Assay: SPR (Biacore T200), antibody captured on Protein A

Kd [nM] | Binder
18.9 | M4-H1L1 (antibody, human IgG1, kappa, humanized IgG1/kappa) heavy: not shown light: DIQMTQSPSSLSASVGDRVTITCSASSSVFNMNWYQQKPGKSPKLWIYDISKLASGVPSRFSGSGSGTDFTLTISSLQPEDFATYYCQQRSFYPPTFGGGTKVEIKRTVAAPSVFIFPPSDEQLKSGTASVVCLLNNFYPREAKVQWKVDNALQSGNSQESVTEQDSKDSTYSLSSTLTLSKADYEKHKVYACEVTHQGLSSPVTKSFNRGEC
17.8 | M4H1L1-ZalH4 (bispecific antibody, human IgG1, kappa) heavy: not shown light: DIQMTQSPSSLSASVGDRVTITCSASSSVFNMNWYQQKPGKSPKLWIYDISKLASGVPSRFSGSGSGTDFTLTISSLQPEDFATYYCQQRSFYPPTFGGGTKVEIKRTVAAPSVFIFPPSDEQLKSGTASVVCLLNNFYPREAKVQWKVDNALQSGNSQESVTEQDSKDSTYSLSSTLTLSKADYEKHKVYACEVTHQGLSSPVTKSFNRGEC chain 1: not shown chain 2: DIQLTQSPSSLSASVGDRVTITCRASQDISSALVWYQQKPGKAPKLLIYDASSLESGVPSRFSGSESGTDFTLTISSLQPEDFATYYCQQFNSYPLTFGGGTKVEIKGGGGSSGAPRFLTRPKASVVSVGKDATLSCQIVGNPFPQVSWEKDKQPVTAGVRFRLAQDGDLYRLKILDLQLSDSGQYVCRARNAHGEAFACLGLQVDAEA
